# T1: Abl SH2 (UniProt P00519 127-217, limits assumed)
# T1 construct: domain: SH2; Target protein of the library selection
# T1 sequence (looked up): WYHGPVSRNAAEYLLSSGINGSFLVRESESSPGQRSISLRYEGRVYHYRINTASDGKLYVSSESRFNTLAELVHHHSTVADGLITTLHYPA
# B1: MBPMbS09 (designed binder)
# therMonobody (FN3 domain): SSSSVPQIASIASGPETITVKWYDTNASYYYISYWSYSTATVAIAVGNVTSYTIKHLKPGVTYYIQIVPYYGYRPYPSYGYPSDIISATPSSS
# notes: side-and-loop library clone selected on MBP
# B2: SUMOMbL14 (designed binder)
# therMonobody (FN3 domain): SSSSVPQIASIASGPETITVKWYDTNASYYYITYWSSSSQKVTINVGSPISYTIKHLKPGVTYYIQIVPYYTIGPDEYYYIPSDIISATPSSS
# notes: loop-only library clone selected on ySUMO
# B3: SUMOMbS08 (designed binder)
# therMonobody (FN3 domain): SSSSVPQIASIASGPETITVKWYDTNASYYYIYYWSLQYYREAVKIEVGNVTSYTIKHLKPGVTYYIQIVPFEEFGFGWYSGDPSDIISATPSSS
# notes: side-and-loop library clone selected on ySUMO
# B4: MBPMbL17 (designed binder)
# therMonobody (FN3 domain): SSSSVPQIASIAVGPETITVKWYRIPHAYYYYITYWSSSSQKVTINVGNVTSYTIKHLKPGVTYYIQIVPYYPSPWYLSYGYPSDIISATPSSS
# notes: loop-only library clone selected on MBP
# B5: AblSH2MbL04 (designed binder)
# therMonobody (FN3 domain): SSSSVPQIASIASGPETITVKWYYYSIDVYYYITYWSSSSQKVTINVGPQTSYTIKHLKPGVTYYIQIVPYSFYSDSDYGYYPSDIISATPSSS
# notes: loop-only library clone selected on Abl SH2
# B6: MBPMbS01 (designed binder)
# therMonobody (FN3 domain): SSSSVPQIASIASGPETITVKWYDTNASYYYISYWSADYDSEAVAIAVGNVTSYTIKHLKPGVTYYIQIVPYKANSYYPGYGYPSDIISATPSSS
# notes: as for B1
# B7: MBPMbS12 (designed binder)
# therMonobody (FN3 domain): SSSSVPQIASIASGPETITVKWYDTNASYYYISYWSGQSETVAIEVGNVTSYTIKHLKPGVTYYIQIVPYYPGYYPVHYVPSDIISATPSSS
# notes: as for B1
# B8: SUMOMbS20 (designed binder)
# therMonobody (FN3 domain): SSSSVPQIASIAVGPETITVKWYDTNASYYYIYYWSKHPKKVKIEVGNVTSYTIKHLKPGVTYYIQIVPFISYYDLYYSGDPSDIISATPSSS
# notes: as for B3
# B9: AblSH2MbS02 (designed binder)
# therMonobody (FN3 domain): SSSSVPQIASIASGPETITVKWYDTNASFYYIYYWSTYPVTEEVEIKVGNVTSYTIKHLKPGVTYYIQIVPQYWYLGAGYPSDIISATPSSS
# notes: side-and-loop library clone selected on Abl SH2
# B10: MBPMbL08 (designed binder)
# therMonobody (FN3 domain): SSSSVPQIASIASGPETITVKWYWSSYYWSPFYYYITYWSSSSQKVTINVGNVTSYTIKHLKPGVTYYIQIVPYWYQYFPRYGYPSDIISATPSSS
# notes: as for B4
# B11: AblSH2MbS07 (designed binder)
# therMonobody (FN3 domain): SSSSVPQIASIASGPETITVKWYDTNASYYYIYYWSSYPVTEEVEIKVGNVTSYTIKHLKPGVTYYIQIVPGYYSYPYYLSPSDIISATPSSS
# notes: as for B9
# B12: SUMOMbS34 (designed binder)
# therMonobody (FN3 domain): SSSSVPQIASIASGPETITVKWYDTNASYYYIYYWSGPYYYKKVTITVGNVTSYTIKHLKPGVTYYIQIVPYHVHDWGYYYYPSDIISATPSSS
# notes: as for B3
# Legend:
# [1] = molecular target: T2, maltose-binding protein (MBP) (UniProt P0AEX9 27-396 = MBP); test: yeast surface display: therMonobody on yeast, soluble target titrated 0-1000 nM, mean fluorescence, fit of the 1:1 binding model
# Excerpt: (§1) FIG. 6A-C. therMonobody library designs and generated clones. Amino acid sequences of therMonobodies generated from the loop-only library (a) and the side-and-loop library (b). The locations of diversified residues in the libraries are shown as spheres on the STOTEMP4 structure. “X” denotes a mixture of 30% Tyr, 13% Ser, 10% Gly, 5% Asp, 5% Leu, 5% Pro, 5% Trp and 2.5% each of all pther amino acids except for Cys and Met; “B”, a mixture of Ala, Ser, Thr, Asn, Asp and Tyr; “U”, a mixture of Ser, Thr, Asn and Tyr; “Z”, a mixture of Ala, Glu, Lys and Thr. (c) Binding measurements by yeast surface display of representative therMonobodies for each combination of library and target. The mean fluorescence intensities of yeast cells displaying therMonobodies are plotted as a function of the target concentration. The error indicated are the standard deviations from curve fitting of the 1:1 binding model.
# [2] = molecular target: T2, maltose-binding protein (MBP); test: yeast surface display titration, KD column of the drawn table [b]
# [3] = molecular target: T3, yeast small ubiquitin-like modifier (ySUMO) (yeast, UniProt Q12306 1-98 = SUMO, limits assumed); test: yeast surface display titration, KD column of the drawn table [a]
# T3 construct: Target protein of the library selection; Construct not described
# [4] = molecular target: T3, yeast small ubiquitin-like modifier …; test: yeast surface display: therMonobody on yeast, soluble target titrated 0-2000 nM, mean fluorescence, fit of the 1:1 binding model
# Excerpt: as §1
# [5] = molecular target: T3, yeast small ubiquitin-like modifier …; test: yeast surface display titration, KD column of the drawn table [b]
# [6] = molecular target: T2, maltose-binding protein (MBP); test: yeast surface display titration, KD column of the drawn table [a]
# Abl SH2 [7] = molecular target: T1, Abl SH2; test: as above
# Abl SH2 [8] = molecular target: T1, Abl SH2; test: yeast surface display: therMonobody on yeast, soluble target titrated 0-1000 nM, mean fluorescence, fit of the 1:1 binding model
# Excerpt: as §1
# Abl SH2 [9] = molecular target: T1, Abl SH2; test: yeast surface display titration, KD column of the drawn table [b]
# T3 sequence (Q12306 1-98 limits assumed): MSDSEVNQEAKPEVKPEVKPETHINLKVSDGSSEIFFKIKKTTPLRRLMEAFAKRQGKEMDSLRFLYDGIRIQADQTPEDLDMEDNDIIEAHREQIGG
binder,measurement,setting,value
B1,Kd,[1],9 nM
same,Kd,[2],9 nM
B2,Kd,[3],44 nM
same,Kd,[4],44 nM
B3,Kd,[5],65 nM
B4,Kd,[6],41 nM
B5,Kd,Abl SH2 [7],78 nM
same,Kd,Abl SH2 [8],78 nM
B6,Kd,[2],33 nM
B7,Kd,[2],484 nM
B8,Kd,[5],95 nM
B9,Kd,Abl SH2 [8],13 nM
same,Kd,Abl SH2 [9],13 nM
B10,Kd,[6],12 nM
same,Kd,[1],12 nM
B11,Kd,Abl SH2 [9],827 nM
B12,Kd,[5],20 nM
same,Kd,[4],20 nM

# Source: US20210079063A1 (UNIVERSITY OF CHICAGO, published 2021)
